{"source": "patent US7442159", "key": {"[1]": {"target": "Stoffel fragment of Thermus aquaticus DNA polymerase I fused to p3, displayed on phage (pHEN1-Stoffel) (Thermus aquaticus; filamentous bacteriophage) (UniProt P19821)", "sequence (P19821 290-832 limits assumed)": "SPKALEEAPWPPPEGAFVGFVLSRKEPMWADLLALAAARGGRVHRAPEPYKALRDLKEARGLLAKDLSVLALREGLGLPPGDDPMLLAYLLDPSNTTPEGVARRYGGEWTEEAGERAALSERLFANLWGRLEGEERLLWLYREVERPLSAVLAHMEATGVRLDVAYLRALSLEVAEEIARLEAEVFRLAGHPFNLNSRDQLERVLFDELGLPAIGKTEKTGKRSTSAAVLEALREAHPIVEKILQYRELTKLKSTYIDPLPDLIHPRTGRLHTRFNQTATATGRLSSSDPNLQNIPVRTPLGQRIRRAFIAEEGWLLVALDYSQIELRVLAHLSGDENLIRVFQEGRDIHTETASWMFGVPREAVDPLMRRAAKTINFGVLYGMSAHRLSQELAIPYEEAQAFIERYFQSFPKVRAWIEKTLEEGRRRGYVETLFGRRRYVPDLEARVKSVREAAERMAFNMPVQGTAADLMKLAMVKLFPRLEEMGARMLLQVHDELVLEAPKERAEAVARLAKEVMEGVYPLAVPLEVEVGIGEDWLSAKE", "assay": "phage ELISA, plate coated with anti-Taq antibody, anti-M13-HRP detection; 10^9 phage particles of the pelB leader phagemid pHEN1-Stoffel"}, "[2]": {"target": "Stoffel fragment of Thermus aquaticus DNA polymerase I fused to p3, displayed on phage (pHEN1-Stoffel) (Thermus aquaticus; filamentous bacteriophage) (UniProt P19821)", "assay": "phage ELISA, plate coated with anti-Taq antibody, anti-M13-HRP detection; 10^7 phage particles of clone 10 (selected leader)"}}, "data": [{"substance": "anti-Taq antibody (Taqstart, Clontech)", "values": [{"measurement": "signal to noise ratio", "setting": "[1]", "result": 1.46}, {"measurement": "signal to noise ratio", "setting": "[2]", "result": 1.47}]}]}
